Measurements reported in PMC2952493 (Biochemistry, 2010).

Target: the molecule itself
Assay: SEC

B1: recombinant His-tagged TRUSS_(1-797) (natural protein, UniProt Q9JLV2 1-797, looked up)
chain: MAAAPAAAGAGASRGRRLAATAAAWGGWGGRPRPGNILLQLRQGQLTGRGLVRAVQFTETFLTERDKLSKWSGIPQLLLKLYATSHLHSDFVECQSILKEISPLLSMEAMAFVTEDRKFTQEATYPNTYIFDLFGGVDLLVEILMRPTISIRGQKLKISDEMSKDCLSILYNTCVCTEGVTKRLAEKNDFVIFLFTLMTSKKTFLQTATLIEDILGVKKEMIRLDEVPNLSSLVSNFDQQQLANFCRILAVTISEMDTGNDDKHTLLAKNAQQKKSLSLGPSAAEINQAALLSIPGFVERLCKLATRKVSESTGTASFLQELEEWYTWLDNALVLDALMRVANEESEHNQAPTVFPSLGTSEEGGLPHTSARAQLPQSMKIMHEIMYKLEVLYVLCVLLMGRQRNQVHRMIAEFKLIPGLNNLFDKLIWRKHSASALVLHGHNQNCDCSPDITLKIQFLRLLQSFSDHHENKYLLLNNQELNELSAISLKANIPEVEAVLNTDRSLVCDGKRGLLTRLLQVMKKEPAESSFRFWQARAVESFLRGTTSYADQMFLLKRGLLEHILYCIVDSECKSRDVLQSYFDLLGELMKFNVDAFKRFNKYINTDAKFQVFLKQINSSLVDSNMLVRCVTLSLDRFENQVDMKVAEVLSECRLLAYISQVPTQMSFLFRLINIIHVQTLTQENVSCLNTSLVILMLARRKERLPLYLRLLQRMEHSKKYPGFLLNNFHNLLRFWQQHYLHKDKDSTCLENSSCISFSYWKETVSILLNPDRQSPSALVSYIEEPYMDIDRDFTEE
stoichiometry N: 3
